# According to US10100341B2, “Tailored oils produced from recombinant oleaginous microorganisms” (Corbion Biotech, Inc., priority 2011, dated 2018):
# Tested on: Prototheca moriformis (UTEX 1435)
# Assay: cDNA abundance by real-time RT-PCR under nitrogen depletion
# Type: cell-based
# Conditions: after 24 hours of culture in low nitrogen medium
# Protocol: A cDNA library was generated from Prototheca moriformis (UTEX 1435) using standard techniques. The Prototheca moriformis cells were grown for 48 hours under nitrogen replete conditions. […] After about 24 hours in culture, the nitrogen supply in the media was completely depleted. The collected samples were immediately frozen using dry ice and isopropanol. Total RNA was subsequently isolated from the frozen cell pellet samples and a portion from each sample was held in reserve for RT-PCR studies. The rest of the total RNA harvested from the samples was subjected to polyA selection. Equimolar amounts of polyA selected RNA from each condition was then pooled and used to generate a cDNA library in vector pcDNA 3.0 (Invitrogen). Roughly 1200 clones were randomly picked from the resulting pooled cDNA library and subjected to sequencing on both strands. Approximately 68 different cDNAs were selected from among these 1200 sequences and used to design cDNA-specific primers for use in real-time RT-PCR studies. RNA isolated from the cell pellet samples that were held in reserve was used as substrate in the real time RT-PCR studies using the cDNA-specific primer sets generated above. This reserved RNA was converted into cDNA and used as substrate for RT-PCR for each of the 68 gene specific primer sets. […] As discussed in the specification, nitrogen depletion/limitation is a known inducer of lipogenesis in oleaginous microorganisms. Fold increase refers to the fold increase in cDNA abundance after 24 hours of culture in low nitrogen medium.
row,Molecule,Fold increased (cDNA abundance)
1,"Aat05-Amino acid transporter 05 promoter/5′UTR: putative nitrogen-regulated promoter/5′UTR, SEQ ID NO: 66 (nucleic acid, listed as Prototheca moriformis) DNA: CCGAGCAGTTCATGGCCAAGTACAAGGACTAGAGACCGGAGGTCGGTAGGCTGAATGGAGCTGGCGTCGTCGTGCGCGACGTGCACGCGATGCGATACTACGACCCCACAAACGCATGCCTCCCATCTTGATGCCTTTCCGGCCATTTATACTATTTCTCATTTCGCTGTAACATCTTGAATAATAGAATTGCCCTGTGTCAAGTGGATTCCAAGAAATATTCTGTCCCAACAAAACAACCCAACCTGAAAACAACCTCAAATACCACCAGCCCTGCCCACCTGCCCAGTACACTTTTCCAATACCATCTCCCTACCTTCACGCGCAAGCGGCACCCATGCGCGACCAGGCTCGAAAGGATTTCACGACTCAGGACGAGCGAGTGGCGGCGCGACCGCCTGCCTGTTCGTCACGTGCCGTACGTCGGCGACCGCTAGAGCTTTGCCTGGCAACCCCCGGCTTCGTCAACCCGGCCAGCCAGGATCTCGACCACTCTACCGCGAAATCGCCTCAAGAAGTCGCCAAAAGTGCCGTACACCATGCTTCGCAGCGCTGTTCAAACTTGATGCCAATCTTGACAATCAGGTTGCTCGTTGGCTGCGTCCACATCGGCCGTGATTGCAGCAGGCGGGGATCGGACACGGAGGACGCGGCGTCACGCCGCGAACGCAGCCCGTAACTCTACATCAACGCGATATGTTGCGTAATCCCGCCCGGCTGCGCATTGTGACAACCCATTCGCGATGGATGGTCGGAAAATGGTGTGCCAACTGCCCTGAGGGACTCTCTCGCGAAACGGGCACGTCCCTGTATCCGAAACTGTGGCATGGCCTTGTCGACCACGCAAGCACGTGGACCCTAACACCACGAAAATAAGTAAAAAAGGTTGACATCCTCTACGAGCGAATTGTTTGCTCGACCCTTCATCGCACACTGTCATTATAATGCATCTAGCTCGGCGACAAGTTTAAAAAAGGCAGGCTGCATTATTCCATTTTGCCGTGGCGGCATGGGTGCCCATTTTATGAGGTTTGGGCTCTTGGGCAGCGACCGAGCCAGGTTGAGTCCCTCTCGCCCGTCGACAACGTTCCAAAGCCCATAAGTGGCTAATAAACAACTTGATGGTACCTGTACACTGCCAGTTCCTTCTTCCCCGGCCGAGGTTTACACGTGATGGCCATGGCTTCGCGTTTCAGGCTGACTTCCCATTCCGACTTTCCAGAGGGTCCGCGGACGCCGGGGGTTGGCTGCGTGAGGCCCACCCCTTGTTCCCCGCGTCCCGACAAACACAATTGCGTTACATAAGGGGGAAGCCGCCCCCCGTTCAGAGTGCAAACATCTTTCATTATATTTTTCAGTCGTCAGCGAAATCAAGTATGTCGCTGACAGGCATGAAGGCC",6.71
2,"NRAMP metal transporter promoter/5′UTR: putative nitrogen-regulated promoter/5′UTR, SEQ ID NO: 56 (nucleic acid, listed as Prototheca moriformis) DNA: ACTAATTGCAATCGTGCAGTAATCATCGATATGGTCACAAGTAGATCCCCTACTGACACCCTCTCGTACATGTAGGCAATGTCATCGGCGCCGTCCTGCTGACCGATGCCGACGTAGCAGAGCAGACCCGGGCCGATCTGGGATACGAGCCGGCCCTCCACCTGCGCTCGAGGTGGAATCAAGTAAATAACCAATACACTTTTCGACACCACACAGAGTTGCACGGACGGTGGCGTACCTCTACGCTCGCGCTCTTCACGCGCTGGACGACCGCACGCATGAGCCCGGGTGGCTTGGTCTGGGCTGCAAAAATGCACAACAAACAAGTATCAGACGCTCATGGATGCACACGCGCTCCCAAGCACGCTCAGACTAAATATTACAGTAGCTCGTATCTGATAAGATATCGAGACATACCGCTCAACTCACCCGCAAACTGCGCCCCGCCAGGTGATGCGCACAGGGCCCCACCATGCGATCCATCGCATCGCTCCTCGAGGGCGCTATCACGTGGCCGGAGAGCGTTCACAGCGTACGCCACTGTATCTGGGCGGTATGCGGTCCGTCAACATGGAGACAGATACCCGCACCACCACCTTGCAAGCTCTTCCATATTGGAAGTAGAAAATTGTAATTGTATCATCGCACGAGGGGCCAACTTGCCGTCGGCGAGCTGGGCGACGAACACCACCTGGACGTTGTCGAGACTCGCTCGTGCCGTGCGCCGGGCCGCTGGGTATCCAGACCGTCGCC",9.65
3,"Aat02-Amino acid transporter 02 promoter/5′UTR: putative nitrogen-regulated promoter/5′UTR, SEQ ID NO: 63 (nucleic acid, listed as Prototheca moriformis) DNA: AGAGAGCGGAGGTGGGGTTGTGAGGTGGGGTTGCTGACCAGGAGCTCGCGTCGCCGAGCGCGACTCGCACACGGTCCAGTTACCCCCCCCTCCGCCCAAACGCAAGCCTCCCATCTTGATGCCTTTCCGGCCACCTATACTATTTCTTAGTTCGCTGTAACATCCAGACCGTCCTGAATAATAACAATGCCCTGTGTCAAGTGCATTCCTAAAAAAATTCTGTCCCAACCAACAATCCCACCTGAAATACCACCAGCCCTGCCCAGTACACTCTTCCAATACCATCTCCCTACCTCCACGCGCAAGCGACCCCCATGCGCGACCAGGCTCGAAAGTGATTTATGACTTGAGACGAGCGAGTGGCGGCGCGGTCGACTGCCTTTTCATCACGTGCCGTACGTCGGCGACCGCTAGGGCTTTGCACGGCAACGCACGGCTTCGCCAACCCGACCAGCCAGGACCTCGACTACTCTACCGCGAATTCGCCTCAAGAAGTCGCCAAATGTGCCATACACCATTCCTTACAGCACTGTTCAAACTTGATGCCAATTTTGACATTCGGGTTGCTCGTTGGCTGCGCCCACATCGGCCGTGAGTGCAGCAGGCGGGATCGGACACGGAGGACGCGGCGTCACGCCCCGAACGCAGCCCGTAACTCTACATCAACACGACGTGTTGCGTAATCCCGCCCGGCTGCGCATCGTGCCAACCCATTCGCGATGGATGGTCGGAAAATGGTGTGCCAACTGCCCTGAGGGAGGCTCTCGCGAAACGGGCACGTCCCTGAAACCGAAACTGTGGCCTTGTCGTCGGCCACGCAAGCACGTGGACCCTAAACACCAAGAAAATCAGTAAACAAGGTTGACATCCTCTACGGGCGAATTGTTTGCCCAACCCTTCATCGCACACTGCCATTATAATGCATCTAGCTCGGCGACAAGTTTAGAAAAGGCAGGCTGCATTGTTCCATTTCGCCGTGGCGGCGTGGGTGCCCATTTTACGAGGTTTGGGCTCCCGGGCAGCGACCGAGCCAGGTCGAGTCCCTCTCGCCCGTCGACAATGTTGCGAACCCCACAAGCGGCTAACAACAACTTGATGGTACCTGTACACTGCCAATTCCTTCTTCCCCGGCCGAGGTTTACACGTGATGGCCATGGCTTCGCATTCAGGCCGACTTCCCATTCCGACTTTCCAGAGGGTCCGCGGACGCTGGGGGTTGGCTGCCTGAGGCCCACCCTTTGTTCCCCGCGTCCCGACAAACACAATTGCGTTACATAAGGGGGAGCCGCCCCCGTTCAGAGTGCAGAAATCTTTCACTATATTTTCCAGTCGTCAGCGAAATCAAGT",6.5
4,"Aat03-Amino acid transporter 03 promoter/5′UTR: putative nitrogen-regulated promoter/5′UTR, SEQ ID NO: 64 (nucleic acid, listed as Prototheca moriformis) DNA: GATGGTGGGGTGTCTGCCTTGGGCTGGGTGATGGAGGCTGGTGGTGCGCGGGTTTCCTGATGCATTCTATCTACGCAGTGTCATGGTGTCCATTCCACACACCAGTACACCCTTACACTAAGGATCCATCCCTCCTTCCCTCTTCAGGACTACATGGACCCCACGAGCTACCGACCGGGCTTTCTCAAAAACGTCAAGGTCATGTTTGACATGCGGGACGTGGTGGACGACGTGCAAGGTGCGTCCGGAGTGCGCGCAAATGAGCAAGTCGGGCAATGTGTCGGGGTGGGCACCGGGGCTGGAGATCCGCGATCCCCGAGAAAACGCCGTACCACCCCCCGCGCTATTCCCTCGATTGCGCGCAGATGTGGTGACCGACACGGGGGACAACCTGGCGGACATGGGGCGCCGGACCTGGAAGCACGCCAAGTCGCACACGGGGAGGCTCGTGCAGTCCCCCCCATCGTACCTCAAGGGTCTCTTTGGTCGCGATCCAAAGTACGCTGGTGGCATGGCATGCCCGAAATGAACATCATGTGTGATCTCCGATTGCCAATGGCCACCTCCACGGACCACCTTGCAGGCGGAAGCGCAATCCAGGGCCCGAGCCTGACGAGGACGGAGACTCCTCGTCCAGCGCGGGGTCCCCGACCCGACGCAGCAGCCGACCCCTGCTAACCCGGCAACGATCGGACCAGCAACCTTGCTGTAGTTCCGATCCGTGATGACGGGCATTGCCGCCGCTCGATCCGCTTTGATGACTGTCTATTATTTGCGCGGAGCCCCCTCGGAACCCTACCCCGCTCTTGCAAGCCCCTTGCATCGGAGATCCTCGTGCGCCCGCCATGACCCCACTGGATTGCCCAACATCCTTCTTTATCGTGTAAAATGTGATTCCTCGGCTGCAATCGACTGGCCTTCGCTTCTGGCCCCAAGAGGGCTCGAACGTGCGGCAGCGAGGGCGCTGACACACCCAAGCCCTAGGGCTTTCAACGTCGGCTGCCAGGCCGGATAGGGGGATCGCCTCCTTTCCACCACCCACCTACGAGGGATTCGAGTCGGCTTCCAGCTCAGCTATTCGGCCGCGCCCCCGGCCCTGCAGACGTCCTCCAGTTTCCGAACAGGTCGCTCTCAGAACACCTGCCGCGGCTGCGATACGGCAGGCTCTCAAAGCGTCGAC",7.87
